{
  "source": "paper PMC13064919",
  "about": "“Novel extracellular vesicle release pathway facilitated by toxic superoxide dismutase 1 oligomers” (Neurobiology of disease, 2026)",
  "proteins": {"B1": {"name": "Cavin-1 (natural protein, mouse (endogenous in NSC-34), UniProt O54724 1-392, looked up)", "chain": "MEDVTLHIVERPYSGFPDASSEGPEPTQGEARATEEPSGTGSDELIKSDQVNGVLVLSLLDKIIGAVDQIQLTQAQLEERQAEMEGAVQSIQGELSKLGKAHATTSNTVSKLLEKVRKVSVNVKTVRGSLERQAGQIKKLEVNEAELLRRRNFKVMIYQDEVKLPAKLSVSKSLKESEALPEKEGDELGEGERPEDDTAAIELSSDEAVEVEEVIEESRAERIKRSGLRRVDDFKKAFSKEKMEKTKVRTRENLEKTRLKTKENLEKTRHTLEKRMNKLGTRLVPVERREKLKTSRDKLRKSFTPDHVVYARSKTAVYKVPPFTFHVKKIREGEVEVLKATEMVEVGPEDDEVGAERGEATDLLRGSSPDVHTLLEITEESDAVLVDKSDSD", "notes": "Cavin-1, endogenous in NSC-34 cells, detected by western blot; source: endogenous, NSC-34 lysate (RIPA buffer)"}},
  "biological_target": "the molecule itself",
  "test": "reducing SDS-PAGE western blot; NSC-34 lysate, SDS-PAGE loading dye with 0.1 M DTT, 12% gel",
  "data": [
    {"protein": "B1", "values": [
      {"measurement": "stoichiometry N", "result": 2}
    ]}
  ]
}
